According to US20180142030A1 (Bristol-Myers Squibb, published 2018):

These binders were tested against T1, recombinant human CD40 monomer (human, UniProt P25942 21-193) (assay: BLI (Octet RED); antibody supernatant captured on protein A sensors, huCD40-monomer in solution).
T1 construct: also called huCD40-monomer; soluble human CD40
From the text: The closest matching human germline region sequence was selected for each mouse variable domain, and these human framework regions were used to replace murine frameworks in the “CDR graft” versions of the antibodies. Additional amino acid substitutions, such as framework back-mutations, were then made as necessary to restore the binding affinity of the humanized antibody. Further amino acid substitutions were made to eliminate sequence liabilities. The sequence relationships between the various forms of the antibodies of the present invention are provided at Table 6. The binding of various agonistic anti-huCD40 antibodies to soluble human CD40 was determined by Biolayer Interferometry (BLI) analysis using a Fortebio Octet RED (Rapid system—Extended Detection) label-free interaction analysis instrument. All studies were performed in 10 mM NaₓPO₄, 130 mM NaCl, 0.05% Surfactant P20 (pH 7.1) at 25° C. Briefly, anti-huCD40 antibody supernatants (diluted to 10 μg/ml or captured undiluted if supernatant concentration was less than 10 μg/ml) were captured on protein A coated biosensors (Pall Fortebio #18-5010) using a loading time of 90 s and shake speed of 1000 rpm. Supernatants were first screened for binding to 1 μM recombinant human CD40 monomer (huCD40-monomer) using 180 s association and dissociation times, at 1000 rpm, with two 15 s conditioning steps using 10 mM glycine pH 1.5 in between binding cycles.

T1 sequence (P25942 21-193 limits assumed): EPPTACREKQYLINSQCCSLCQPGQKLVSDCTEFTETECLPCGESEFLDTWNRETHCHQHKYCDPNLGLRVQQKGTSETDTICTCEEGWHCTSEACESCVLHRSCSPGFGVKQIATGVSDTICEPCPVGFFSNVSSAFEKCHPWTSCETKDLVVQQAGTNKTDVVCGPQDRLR

Binder | Kd [nM]
5G7-25 (antibody, human IgG1, kappa, V domains shown, Humanized; IgG1f) VH: QVQLVQSGAEVKKPGASVKVSCKASGYTFTDYNMDWVRQAPGQGLEWMGDINPKNAGTIYNLKFKGRVTLTVDTSTSTAYMELRSLRSDDTAVYYCVRRMDYWGQGTTVTVSS VL: DIQMTQSPSSLSASVGDRVTITCRASQDISNYLNWYQQKPGKVPKLLIYYISRLHSGVPSRFSGSGSGTDFTLTISSLQPEDVATYYCQQGNTLPYTFGGGTKVEIKR | 69
5G7-28 (antibody, human IgG1, kappa, name in Kabat numbering, V domains shown) VH: QVQLVQSGAEVKKPGASVKVSCKASGYTFTDYNMDWVRQAPGQGLEWMGDINPKNAGTIYNLKFKGRVTLTVDTSTSTAYMELRSLRSDDTAVYYCVRRLDYWGQGTTVTVSS VL: DIQMTQSPSSLSASVGDRVTITCRASQDISNYLNWYQQKPGKVPKLLIYYISRLHSGVPSRFSGSGSGTDFTLTISSLQPEDVATYYCQQGNTLPYTFGGGTKVEIKR | 230
12D6-03 (antibody, human IgG1, kappa, V domains shown, Humanized) VH: QVQLVQSGAEVKKPGASVKVSCKASGYTFTGYNMNWVRQAPGQGLEWMGNIDPYYGNTNYNQKFKGRVTMTTDTSTSTAYMELRSLRSDDTAVYYCARLGLQLYAMDYWGQGTTVTVSS VL: DIVMTQTPLSLPVTPGEPASISCRSSQSLVHSNGNTYLHWYLQKPGQSPQLLIYKLTNRFFGVPDRFSGSGSGTDFTLKISRVEAEDVGVYYCSQSIHVPWTFGGGTKVEIKR | 4.8
19G3-11 (antibody, human IgG1, kappa, V domains shown, Humanized; IgG1f) VH: EVQLVESGGGLVKPGGSLRLSCAASGFTFSSYAMSWVRQAPGKGLEWVSEISGGGSYTYYPDTVTGRFTISRDNAKNSLYLQMNSLRAEDTAVYYCASRAYWGQGTLVTVSS VL: DIVMTQTPLSLPVTPGEPASISCRSSQSIVHSNGNTYFEWYLQKPGQSPQLLIYKVSNRFSGVPDRFSGSGSGTDFTLKISRVEAEDVGVYYCFQGSHVPYTFGGGTKVEIKR | 850
8E8-62 (antibody, human IgG1, kappa, V domains shown, Humanized; IgG1f) VH: QVQFVQSGAEVKKPGSSVKVSCKASGYTFTSYWMQWVRQAPGQGLEWMGTIYPGDGDSRYNQKFKGKALLTADKSTSTAYMELSSLRSEDTAVYYCARFSLYEGYPYYFDYWGQGTTVTVSS VL: DIVMTQSPLSLPVTPGEPASISCRSSQSLVHRNGNTYLHWYLQKPGQSPQLLIYRVSNRFSGVPDRFSGSGSGTDFTLKISRVEAEDVGVYYCSQSTHFPYTFGGGTKVEIKR | 31
12D6-24 (antibody, human IgG1, kappa, Humanized; IgG1f; also called 12D6-24 IgG1f; mAb 12D6-24 human IgG1f (control)) heavy: not shown light: DIVMTQTPLSLPVTPGEPASISCRSSQSLVHSNANTYLHWYLQKPGQSPQLLIYKLTNRFFGVPDRFSGSGSGTDFTLKISRVEAEDVGVYYCSQSIHVPWTFGGGTKVEIKRTVAAPSVFIFPPSDEQLKSGTASVVCLLNNFYPREAKVQWKVDNALQSGNSQESVTEQDSKDSTYSLSSTLTLSKADYEKHKVYACEVTHQGLSSPVTKSFNRGEC | 5.6
19G3-23 (antibody, human IgG1, kappa, name in Kabat numbering, V domains shown, Heavy chain inferred from the identical VH description (VH3-21 S94R) of 19G3-11; Light chain is the VKII O11 CDR graft of 19G3-11 with G29A) VH: EVQLVESGGGLVKPGGSLRLSCAASGFTFSSYAMSWVRQAPGKGLEWVSEISGGGSYTYYPDTVTGRFTISRDNAKNSLYLQMNSLRAEDTAVYYCASRAYWGQGTLVTVSS VL: DIVMTQTPLSLPVTPGEPASISCRSSQSIVHSNANTYFEWYLQKPGQSPQLLIYKVSNRFSGVPDRFSGSGSGTDFTLKISRVEAEDVGVYYCFQGSHVPYTFGGGTKVEIKR | 1300
8E8-66 (antibody, human IgG1, kappa, V domains shown) VH: QVQFVQSGAEVKKPGSSVKVSCKASGYTFTSYWMQWVRQAPGQGLEWMGTIYPGDGDSRYNQKFKGKALLTADKSTSTAYMELSSLRSEDTAVYYCARFSLYDGYPYYFDYWGQGTTVTVSS VL: DIVMTQSPLSLPVTPGEPASISCRSSQSLVHRNANTYLHWYLQKPGQSPQLLIYRVSNRFSGVPDRFSGSGSGTDFTLKISRVEAEDVGVYYCSQSTHFPYTFGGGTKVEIKR | 82
8E8-56 (antibody, human IgG1, kappa, V domains shown, Humanized; IgG1f) VH: QVQFVQSGAEVKKPGSSVKVSCKASGYTFTSYWMQWVRQAPGQGLEWMGTIYPGDGDSRYNQKFKGKALLTADKSTSTAYMELSSLRSEDTAVYYCARFSLYDGYPYYFDYWGQGTTVTVSS VL: DIVMTQSPLSLPVTPGEPASISCRSSQSLVHRNGNTYLHWYLQKPGQSPQLLIYRVSNRFSGVPDRFSGSGSGTDFTLKISRVEAEDVGVYYCSQSTHFPYTFGGGTKVEIKR | 82
19G3 (parental) (antibody, V domains shown, Mouse variable domains; also called 1802.3582.19G3.F10.E1; mAb 19G3) VH: EVQLVESGGGLVKPGGSLKLSCAASGFTFSSYAMSWVRQSPEKRLEWVAEISGGGSYTYYPDTVTGRFTISRDNAKNTLYLEMSSLRSEDTAMYYCASRAYWGQGTLVTVSA VL: DVLMTQTPLSLPVSLGDQASISCRSSQSIVHSNGNTYFEWYLQKPGQSPKLLIYKVSNRFSGVPDRFSGSGSGTDFTLKISRVEAEDLGVYYCFQGSHVPYTFGGGTKLEIK | 870
5F11-17 (antibody, human IgG1, kappa, Humanized; IgG1f) heavy: not shown light: DIVMTQSPDSLAVSLGERATINCRASKNVDSYGNSFMHWYQQKPGQPPKLLIYRASNLESGVPDRFSGSGSGTDFTLTISSLQAEDVAVYYCQQSNEDPLTFGQGTKLEIKRTVAAPSVFIFPPSDEQLKSGTASVVCLLNNFYPREAKVQWKVDNALQSGNSQESVTEQDSKDSTYSLSSTLTLSKADYEKHKVYACEVTHQGLSSPVTKSFNRGEC | 8.4
5F11-45 (antibody, human IgG1, kappa, Humanized; IgG1f) heavy: not shown light: DIVLTQSPDSLAVSLGERATINCRASKNVDSYGNSFMHWYQQKPGQPPKLLIYRASNLESGVPDRFSGSGSGTDFTLTISSLQAEDVAVYYCQQSNEDPLTFGQGTKLEIKRTVAAPSVFIFPPSDEQLKSGTASVVCLLNNFYPREAKVQWKVDNALQSGNSQESVTEQDSKDSTYSLSSTLTLSKADYEKHKVYACEVTHQGLSSPVTKSFNRGEC | 12.3

The next lines start with the values.

Kd [nM] | Binder
3.6 | 12D6 (parental) (antibody, V domains shown, Mouse variable domains; also called 1802.3716.12D6.B1.E3; mAb 12D6) VH: EVQLQQSGPELEKPGASVKMSCKASGYSFTGYNMNWVKQSNGKSLEWIGNIDPYYGNTNYNQKFKGKATLTVDKSSSTAYLQLKSLTSEDSAVYYCARLGLQLYAMDYWGQGTSVTVSS VL: DVVMTQTPLSLPVSLGDQASISCRSSQSLVHSNGNTYLHWYLQKPGQSPNLLIYKLTNRFFGVPDRFSGSGSGTDFTLKISRVEAEDLGVYFCSQSIHVPWTFGGGTKLEIK
85 | 8E8 (parental) (antibody, V domains shown, Mouse variable domains; also called 1802.3583.8E8.C10.G2; mAb 8E8) VH: QVQFQQSGAELARPGASVKLSCKASGYTFTSYWMQWVKQRPGQGLEWIGTIYPGDGDSRYNQKFKGKALLTADKSSSIAYMQLNSLASEDSAVYFCARFSLYDGYPYYFDYWGQGTTLTVSS VL: DVVMTQTPLSLPVSLGDQASISCRSSQSLVHRNGNTYLHWYLQKPGQSPKLLIYRVSNRFSGVPDRFSGSGSGTDFTLKISRVEAEDLGIYFCSQSTHFPYTFGGGTKLEIK
50 | 5G7-22 (antibody, human IgG1, kappa, V domains shown, Humanized; IgG1f) VH: QVQLVQSGAEVKKPGASVKVSCKASGYTFTDYNMDWVRQAPGQGLEWMGDINPKNGGTIYNLKFKGRVTLTTDTSTSTAYMELRSLRSDDTAVYYCVRRMDYWGQGTTVTVSS VL: DIQMTQSPSSLSASVGDRVTITCRASQDISNYLNWYQQKPGKVPKLLIYYISRLHSGVPSRFSGSGSGTDFTLTISSLQPEDVATYYCQQGNTLPYTFGGGTKVEIKR
99 | 19G3-22 (antibody, human IgG1, kappa, V domains shown, Humanized; IgG1f) VH: EVQLVESGGGLVKPGGSLRLSCAASGFTFSSYAMSWVRQAPGKGLEWVSEISGGGSYTYYPDTVTGRFTISRDNAKNSLYLQMNSLRAEDTAVYYCASRAYWGQGTLVTVSS VL: DIVMTQTPLSLPVTPGEPASISCRSSQSIVHSQGNTYFEWYLQKPGQSPQLLIYKVSNRFSGVPDRFSGSGSGTDFTLKISRVEAEDVGVYYCFQGSHVPYTFGGGTKVEIKR
4.3 | 12D6-23 (antibody, human IgG1, kappa, V domains shown, Humanized; IgG1f) VH: QVQLVQSGAEVKKPGASVKVSCKASGYTFTGYNMNWVRQAPGQGLEWMGNIDPYYGNTNYNQKFKGRVTMTTDTSTSTAYMELRSLRSDDTAVYYCARLGLQLYALDYWGQGTTVTVSS VL: DIVMTQTPLSLPVTPGEPASISCRSSQSLVHSNGNTYLHWYLQKPGQSPQLLIYKLTNRFFGVPDRFSGSGSGTDFTLKISRVEAEDVGVYYCSQSIHVPWTFGGGTKVEIKR
3.6 | 12D6-22 (antibody, human IgG1, kappa, V domains shown, Humanized; IgG1f) VH: QVQLVQSGAEVKKPGASVKVSCKASGYTFTGYNMNWVRQAPGQGLEWMGNIDPYYGNTNYNQKFKGRVTMTTDTSTSTAYMELRSLRSDDTAVYYCARLGLQLYAMDYWGQGTTVTVSS VL: DIVMTQTPLSLPVTPGEPASISCRSSQSLVHSNANTYLHWYLQKPGQSPQLLIYKLTNRFFGVPDRFSGSGSGTDFTLKISRVEAEDVGVYYCSQSIHVPWTFGGGTKVEIKR
89 | 5G7 (parental) (antibody, V domains shown, Mouse variable domains; also called 1802.3583.5G7.F12.G3; mAb 5G7) VH: EVLLQQSGPELVKPGASVKIPCKASGYKFTDYNMDWVKQSHGKSLEWIGDINPKNGGTIYNLKFKGKATLTVDMSSSTAYMELRSLTSEDTAVYYCVRRMDYWGQGTSVTVSS VL: DIQMTQTTSSLSASLGDRVTISCRASQDISNYLNWYQQKPDGTVKLLIYYISRLHSGVPSRFRGSGSGTDFSLTISNLEQEDIATYFCQQGNTLPYTFGGGTNLEIK
4.9 | 5F11-23 (antibody, human IgG1, kappa, Humanized; IgG1f) heavy: not shown light: DIVLTQSPDSLAVSLGERATISCRASKNVDSYGNSFMHWYQQKPGQPPKLLIYRASNLESGVPDRFSGSGSGTDFTLTISSLQAEDVAVYYCQQSNEDPLTFGQGTKLEIKRTVAAPSVFIFPPSDEQLKSGTASVVCLLNNFYPREAKVQWKVDNALQSGNSQESVTEQDSKDSTYSLSSTLTLSKADYEKHKVYACEVTHQGLSSPVTKSFNRGEC
